Assay results: patent publication US20240141364

Experiments:
Assay in all cases: cell_activity
[1] = test system: SB03758 degron-A(EAAAK)3A-ZF10-minKRAB (synthetic construct); details: mCherry increase with 1 uM pomalidomide vs no drug (release of repression); U87-MG
[2] = test system: SB03759 degron-A(EAAAK)3A-ZF10-1-minKRAB (synthetic construct); details: mCherry increase with 1 uM pomalidomide vs no drug (release of repression); U87-MG; text describes the reporter as SEQ ID NO 56 core promoter with four …
[3] = test system: SB03936 degron-A(EAAAK)3A-HDAC4-ZF10-1 (synthetic construct); details: mCherry increase with 1 uM pomalidomide vs no drug; represses without drug; U87-MG
[4] = test system: SB03937 ZF10-HDAC4-ecpd-degron (synthetic construct); details: mCherry increase with 1 uM pomalidomide vs no drug; represses without drug; U87-MG

Measured: activity

Chain of SB03937 ZF10-HDAC4-ecpd-degron (synthetic construct) (chain, as listed by the source): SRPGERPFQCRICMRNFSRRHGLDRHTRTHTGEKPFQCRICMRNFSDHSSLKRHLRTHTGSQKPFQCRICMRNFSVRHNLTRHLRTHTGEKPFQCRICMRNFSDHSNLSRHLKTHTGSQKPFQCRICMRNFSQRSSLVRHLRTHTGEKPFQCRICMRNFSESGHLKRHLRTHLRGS
Chain of SB03759 degron-A(EAAAK)3A-ZF10-1-minKRAB (synthetic construct) (chain, as listed by the source): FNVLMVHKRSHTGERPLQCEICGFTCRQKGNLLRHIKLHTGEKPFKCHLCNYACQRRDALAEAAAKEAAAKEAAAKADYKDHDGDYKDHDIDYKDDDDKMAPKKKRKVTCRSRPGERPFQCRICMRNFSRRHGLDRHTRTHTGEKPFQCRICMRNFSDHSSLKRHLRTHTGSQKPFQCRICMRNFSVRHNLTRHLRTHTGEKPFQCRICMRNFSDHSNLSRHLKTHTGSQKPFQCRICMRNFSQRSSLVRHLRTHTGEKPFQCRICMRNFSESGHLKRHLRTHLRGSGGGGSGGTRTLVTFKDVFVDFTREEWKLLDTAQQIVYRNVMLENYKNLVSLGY
Chain of SB03758 degron-A(EAAAK)3A-ZF10-minKRAB (synthetic construct) (chain, as listed by the source): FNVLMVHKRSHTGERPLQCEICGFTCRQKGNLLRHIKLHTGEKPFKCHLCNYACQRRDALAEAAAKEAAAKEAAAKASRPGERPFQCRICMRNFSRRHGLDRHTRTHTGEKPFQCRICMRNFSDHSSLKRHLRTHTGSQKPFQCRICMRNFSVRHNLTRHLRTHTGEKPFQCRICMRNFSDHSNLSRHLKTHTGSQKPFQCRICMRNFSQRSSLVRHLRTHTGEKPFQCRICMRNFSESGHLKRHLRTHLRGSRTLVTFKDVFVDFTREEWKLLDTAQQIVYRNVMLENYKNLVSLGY

CGGGTTTCGTAACAATCGCATGAGGATTCGCAACGCCTTCGGCGTAGCCGATGTCGCGCTCCCGTCTCAGTAAAGGTCGGCGTAGCCGATGTCGCGCAATCGGACTGCCTTCGTACGGCGTAGCCGATGTCGCGCGTATCAGTCGCCTCGGAACGGCGTAGCCGATGTCGCGCATTCGTAAGAGGCTCACTCTCCCTTACACGGAGTGGATAACTAGTTCTAGAGGGTATATAATGGGGGCCA (double strand) [4xZF10-1 binding sites + core promoter (mCherry reporter)]
> 4 fold: all assays above
